Measured values as given in patent publication US20180298404A1.

Key:
[1] = biological target: Mamu-E*02:04, single transfectant (rhesus macaque); assay: cell-based or functional assay
[2] = biological target: Mamu-E*02:20, single transfectant (rhesus macaque); assay: cell-based or functional assay

| Substance | peptide dose pulsed on the transfectant that triggers CD8+ T cells (ICS) [1] | peptide dose pulsed on the transfectant that triggers CD8+ T cells (ICS) [2] |
| --- | --- | --- |
| SIVgag259-267 optimal 9mer peptide | < 1 nM | < 1 nM |
| SIVgag276-284 optimal 9mer peptide | < 1 nM | < 1 nM |
| SIVgag476-484 optimal 9mer peptide | < 1 nM | < 1 nM |
| SIVgag482-490 optimal 9mer peptide | < 1 nM | < 1 nM |
